Test results from patent US20230331827A1, “POTASSIUM CHANNEL INHIBITORS” (priority 2017, published 2023).

Assays:
trypsin [1] = assay: KnotBody Fab TRF binding assay on biotinylated trypsin
Procedure: In order to confirm the trypsin binding ability of KnotBodies in Fab format, purified proteins were tested for binding to trypsin using a TRF binding assay. In this assay binding of KnotBody Fabs ([…]) to biotinylated trypsin (immobilised on streptavidin coated Maxisorp™ plates) was detected using a mouse anti-CH1 antibody followed by a europium conjugated anti-mouse antibody (Table 4). 7 KnotBodies (KB_A04, KB_A01, KB_A05, KB_A07, KB_A08, KB_A10, KB_A12) were chosen for crystallisation. DNA prepared for these clones were transfected into 500 ml HEK-293F cells as described before. Expressed proteins were purified using CaptureSelect IgG-CH1 affinity matrix. Purified proteins were initially subjected to crystallisation trials using commercially available crystallisation screens (Supplier). Well-defined crystals were readily obtained for KB_A12 and KB_A05. Crystallisation conditions for these two clones were further optimised and the following condition was used to generate diffraction quality crystals: 0.1 M MES pH=6.5, 25 %w/v PEG MME 2000 and 0.1 M Tris.Cl, 50% PEG MME, 10 mM NiCl2. Complete diffraction data was collected on these crystals at 100 K under liquid nitrogen stream. Collected data was processed using PROTEUM2 software (Bruker). The crystal structure of the knottin-fused Fab antibodies was resolved using molecular replacement technique^109 using Phenix software v 1.8.1-1168^110. Resulting structure was further refined using Phenix.Refine^111. The templates for molecular replacement were downloaded from PDB website (www.rcsb.org/pdb, PDB codes: 3G04 for light chain and 3QOS for heavy chain). KnotBody KB_A12 and KB_A05 sequences are given below. An additional AlaSer sequence is introduced at the N terminus of the light chain from the Nhe1 site used in cloning.
In order to compare the performance of the KnotBodies with short and long linkers, purified Fabs were tested for binding to trypsin by ELISA. In this assay binding of KnotBody Fabs (at 0.5 µg/ml) to biotinylated trypsin (5 µg/ml immobilised on streptavidin coated Maxisorp™ plates) was detected using a mouse anti-CH1 antibody (Hybridoma Reagent Laboratories) followed by a europium conjugated anti-mouse antibody (Perkin Elmer, Cat. No. AD0124). The trypsin binding capability of KB_A07 and KB_A12 KnotBodies were greatly diminished when the short selected linkers were replaced with long and flexible linkers (FIG. 22).

trypsin [2] = assay: Phage TRF binding assay on immobilised biotinylated trypsin (monoclonal phage ELISA)
Procedure: Phage display technology facilitates isolation of binders to any given target from large combinatorial repertoires based on proteins and peptides that can be presented on the surface of filamentous phage^105. In order to isolate functional knottin-antibody fusions from the KnotBody libraries multiple rounds of phage display selections on trypsin (cognate antigen for the EETI-II donor) were carried out. Phage particles were prepared by rescuing KnotBody libraries using trypsin cleavable helper phage ^102,106Two rounds of phage display selections were performed on 10 µg/ml biotinylated trypsin immobilised on Streptavidin (for Round-1) or Neutravidin (for round-2) coated Maxisorp™ immunotubes (Thermo Scientific, Cat No. 444202). In both rounds of selection, phage libraries were pre-incubated with streptavidin coated paramagnetic beads (Thermo Fisher Scientific, Cat. No. 11205D). These beads were removed prior to the addition the phage to the antigen tubes to limit the streptavidin binders entering the selection. Polyclonal phage preparations from round-2 selection outputs were analysed for trypsin binding using a time resolved fluorescence (TRF) binding assay. In this assay, polyclonal phage binding to biotinylated trypsin immobilised on neutravidin (Thermo Fisher Scientific, Cat. No 31000) coated Maxisorp™ plates (Thermo Scientific, Cat. No. 437111) was detected using a mouse anti-M13 antibody (GE Healthcare, Cat. No. 27-9420-01) followed by europium conjugated anti-mouse antibody (Perkin Elmer, Cat. No. AD0124).
In order to identify monoclonal KnotBodies with desired binding characteristics, 94 individual clones derived from 2 rounds of selection using EETI-II CDR1 or CDR2 libraries were picked into 96 well culture plates and phage were prepared from each clone. Methods for screening by monoclonal phage ELISA are known in the art^107. […] Clones with >3x binding signal above background were picked as positive clones and sequenced to identify unique clones. 14 and 42 unique binders were identified from EETI-II CDR1 and EETI-II CDR2 libraries respectively (Table 1). 18 binders from the EETI-II CDR2 library and 3 binders from the EETI-II-CDR1 library were chosen for further characterisation based on their VL and linker sequence diversity. These binders were assigned new clone identification numbers (Table 2).
The trypsin binding capability of EETI-II is attributed to proline (Pro3) and arginine (Arg4) residues present in its loop1 (GCPRILMRC; SEQ ID NO: 68). […] Monoclonal phage was prepared from the 21 selected clones and their mutant equivalents. […] Replacement of the trypsin-binding residues of EETI-II abolished the ability of all KnotBody clones to bind to trypsin (Table 3). In order to confirm that the loss of trypsin binding was not due to reduced expression or display of pIII fusion phage was prepared from 11 (randomly chosen) KnotBodies and their GlyAla variants were analysed on a western blot using an antibody which recognises the product of gene 3 (pIII) using an anti-pIII antibody (MoBiTec GmbH) (FIG. 6).
Bovine antibodies have been described with natural ultra-long VH CDR3s containing a solvent exposed double stranded antiparallel sheet approximately 20 A° in length (referred to as the stalk) presenting a folded domain stabilised by 3 disulfide bonds (referred to as the Knob)^10. Zhang and colleagues have shown that the Knob domains of these cow ultra-long VH CDR3 antibodies (ULVC-Ab) can be replaced with other folded proteins such as erythropoietin^13. In this example, we assess the ability of a cow ULVC-Ab to present functional knottin fusions on phage in comparison with a KnotBody. In order to create a Knottin-cow UCLA fusion, the sequence between the first and the last cysteines of the knob region of the Cow ULVC-Ab BLV1H12 was replaced with the sequence of the trypsin binding knottin; EETI-II (EETI-II cow ULVC-Ab). A gene fragment encoding this construct was synthesised (Integrated DNA technologies, Table 21). […]

B1: KB_A05: EETI-II knottin fused into VL CDR2, D1A12 VH; trypsin binder (antibody)
heavy: EVQLVESGGGLVRPGGSLRLSCAASGFTFSSYAMSWVRQAPGKGLEWVSAISGSGGSTYYADSVKGRFTISRDNTKNSLYLQMTSLRADDTAFYYCVDFGPGYGTGWFDYWGPGTLVTVSSASTKGPSVFPLAPSSKSTSGGTAALGCLVKDYFPEPVTVSWNSGALTSGVHTFPAVLQSSGLYSLSSVVTVPSSSLGTQTYICNVNHKPSNTKVDKKVEPKSC
light: QSVLTQPPSVSEAPRQRVTITCSGSSSNIGNNAVNWYQQLPGKAPKLLIYAADKCPRILMRCKQDSDCLAGCVCGPNGFCGGGSGIPERFSGSKSGTSASLAISGLRSEDEADYYCATWDDNLNGVVFGGGTKLTVLGQPAAAPSVTLFPPSSEELQANKATLVCLISDFYPGAVTVAWKADSSPVKAGVETTTPSKQSNNKYAASSYLSLTPEQWKSHKSYSCQVTHEGSTVEKTVAPTECS
modifications: KB_A05 Heavy chain; KB_A05 Light chain
B1 was tested, and the “TRF signal for 0.6 ug/mL Fab” value (trypsin [1]; Fab 0.6 ug/mL) was 46706, the “TRF signal for 2.4 ug/mL Fab” value (trypsin [1]; Fab 2.4 ug/mL) was 65386 and the “TRF signal for 10 ug/mL Fab” value (trypsin [1]; Fab 10 ug/mL) was 217918. The “% reduction in binding signal” value (trypsin [2]; GlyAla mutant (Pro3, Arg4 of EETI-II substituted) versus the clone, monoclonal phage) was 100% and the “Tryspin binding signal (FU)” value (trypsin [2]; monoclonal phage supernatant, biotinylated trypsin on neutravidin plates) was 121458 FU.
